Article PMC5924911

Assays:
[1] = biological target: VSD-I of human NaV1.4 (residues L114–S246) (human) (UniProt P35499); assay: NMR titration
[2] = biological target: NaV1.4 p.R222W channel (UniProt P35499)
[3] = biological target: NaV1.4 p.R222G channel (UniProt P35499)

Substance: Hm-3 toxin from the crab spider Heriaeus melloteei (peptide)
- Kd [1]: 6.2 µM
- percent of guanidinium-enhanced IGP suppressed by 10 μM Hm-3 at −80 mV, oocytes [2]: 67%
- percent of guanidinium-enhanced IGP suppressed by 10 μM Hm-3 at −80 mV, oocytes [3]: 64%
